These results are taken from the DeepSol protein solubility set.

This series is described as follows: soluble on expression in E. coli; label from the status in PepcDB or PDB records.
For the sequence “MSLSMCGNKISVIRPLPAEVVKKIAAGEIIARPSSAIKELIENSVDAGATEIRVNLSSNPLDFCEIIDNGSGVSEKDLMIICQRYTTSKTTDSIEGVRSLGFRGEALSSLSQNSHVTISSRTENENMRTVMTYSECEPVLDEIRYEEGPRGFHLKYENLFYNYEIRSKSLLSNINSEFISCLHLVQKYSIHFPNINFVFNRTSSPILDLNNLNNVSSQQSSGSGSGDSCSSQPNCNFSTSSRFDDYDSSDDELDITLTQKLEYDYHYFTKMYDDPKSDDLRTEYIRNVEKVSFDCLRVIKENIKRIYGLKVSNVLQEVVFNNFDDLFFNCKGLISHPNQPCKLDMFILFVNNRLIDLPNLRRMIFNTYNDITNNRYRRFVYLSIFVPYDQIDSNIHPTKKRIMIENQAEIVEQITKFFHDKITELIKSATTEGHHHHHH”, the “soluble on expression in E. coli” value is “soluble”.
Consider “MQTQARPPVPQGPRFNHPATPQQVRRPINAPLPGQTAQIQGNRGPQPPKKKKRYADKLIQPKVRELVPESQAYMDLLAFEQKLDSTITRKKIDVQEALKRPQKIKKRLRIYISHTFIAGKEPEKEGDDASVPMWELRVEGRLLDDMQHPTVGANPRPAPKRKFSSFFKSLVIELDKDIYGPDNHLVEWHRTPQTNETDGFQVKRPGDRPVKCTILLLLDYQPMKFKLHPRLAKVLGIAAETRPRIIEALWQYIKTHKLQDPQDRDTINNDLFLEQCFGVSKMRFMEIPQRLHQLLQQPDPLVLNHIIQRPDDGQDKTSACYDIDVELEDPVKQQMANFVHNQTNANDIQLLDQKIFDLVDQINEMKLRRDFFLRFSNEPSGFIKKWVVSQNSDLKTLTESSGDGESDRYATTYSTTDTDEGVSRYMYQKIQQKRAELEQSLGIRNN”, for which the “soluble on expression in E. coli” value was “not soluble”.
The value for “MSNSSKDADSNLKSTVKPRYLILGSGSIGFALAKELRESNKLVIIVDKDEAKIETLREEGFEAILGDISDPELVNNIDLKNVVAILFLSSNNEANRKGIENFKKVVNPDIQIFSRASDIINKEKMEDLGSDYVFMPSKLVASSLSRSLERAESVHRGNRLARWLKGIRDKKLAIVIHDNPDPDAISSGLALKEIAKSLGVEASILYHGRIGHQENKAFVNLLGIDLGKMEEHDLKDFDEIALIDCSIPGVNNMVPPNSYVGIVIDHHPPGETEIKAEYIDIRPNFGATATIMTKYLQQLNINISKTLATALLYGIRTDTQDFKRKTDPADLSAASYLYPLSNHGILDQLEQPSMAIETLEVLGEAIRNRQVLGSYLLSNVGNIRDRDTLPQAADYLLSLEGISTTVVFGVSEDRIYISGRSTDIRVNLGEIMRQAFGEDAGGHANAAGAQIPLGVFSATKDRQTLLRLVNEAVVKRFLSAVGVESTGE” was “soluble”.
Regarding “MITQEMKDLINNQLAMVATVDAKGQPNIGPKRSMRLWDDKTFIYNENTDGQTRINIEDNGKIEIAFVDRERLLGYRFVGTAEIQTEGAYYEAAKKWAQGRMGVPKAVGIIHVERIFNLQSGANAGKEINSESN”, the “soluble on expression in E. coli” value is reported as “not soluble”.
Regarding “MGKTSKYVTAAALCSTIVMGGLHASSVSYAATNPTVATLQSDAKLLNDFKKELKKQIDNREENITITYKTKDRNARNIMDELYGEFNKIVDADEYVKYNIASTRYSIKGLPGNYTFTLQVKYRESKEQTQYVKSQAKAIIGSIVKPGMDEHEKVKAIHDYVVKHVSYDTSYQAYTAYEALANRSAVCQGYTLLTYELLKEAGIQNRIVTGTGNGQAHSWNLVNIENKWYHLDTTFDDPVPDKAGRVTYSYFNMSDEQLSKDHDWDRSKYPAATTSYFNELTNKIKAGSSKTATYEQMLKETNLKYLSAQYGADNYSEFKEKLQQQFASKPEKVEVRYKQSMDGTMQDIKKVLNEINWPKGAKRVSYQVAPYSAMADYSLATITFTY”, the “soluble on expression in E. coli” value is given as “not soluble”.
As to “MSLVWLAELPDEILENLYPGEDVLYSVKKKLYTELKPKYLIVTDRRIIYLDQKILGRYDLIDIPYEKLEFVHFKKGKIGAKFIIRNEEGEEIVLTWMEKDEAEKAIEAIRDAINAIAVEPVSIQKRKGILGFELELSKPKEFITRTYPQAVAKAAPKEDPIERIRKLKELYESGVISREEFEEKKRKLLDQIEGHHHHHH”, the “soluble on expression in E. coli” value is reported as “soluble”.
The value for “MGSDKIHHHHHHMNLLTDIFCQKPKRETAMTTETHYDTQAANSCYYQVQGSEVEIFNFAKTHDLPVLIKGPTGCGKTRFVEFMAESLGRELVTVSCHDDLTAADLLGRHLVSSEGTFWQDGPLTRAVRHGGICYLDEIIEARKDTTVVLHSLSDHRRELHLERTGEVIKAHKDFMLVVSYNPGYQNMMKGLKPSTRQRFVAMSFDYPSPEQEAEILVHEAGITTELAHTLVKLGADIRRLSDIDLKAAVSTRLLIYAAKMMSSGCHAQMACLHCIIEPLTDEKQTIEALTQLVNAHF” was “not soluble”; that for “MGSDKIHHHHHHMSEPVIKSLLDTDMYKITMHAAVFTNFPDVTVTYKYTNRSSQLTFNKEAINWLKEQFSYLGNLRFTEEEIEYLKQEIPYLPSAYIKYISSSNYKLHPEEQISFTSEEIEGKPTHYKLKILVSGSWKDTILYEIPLLSLISEAYFKFVDIDWDYENQLEQAEKKAETLFDNGIRFSEFGTRRRRSLKAQDLIMQGIMKAVNGNPDRNKSLLLGTSNILFAKKYGVKPIGTVAHEWVMGVASISEDYLHANKNAMDCWINTFGAKNAGLALTDTFGTDDFLKSFRPPYSDAYVGVRQDSGDPVEYTKKISHHYHDVLKLPKFSKIICYSDSLNVEKAITYSHAAKENGMLATFGIGTNFTNDFRKKSEPQVKSEPLNIVIKLLEVNGNHAIKISDNLGKNMGDPATVKRVKEELGYTERSWSGDNEAHRWT” was “soluble”.
The entry for “MSLIRGVIGYTITPFTADGTLDLDALGTSIDSLIAGGVHAIAPLGSTGEGAYLSDSEWETVVRFSQARIAGRVPSVVSVSDLTTARTVQRARLAQACGATAVMVLPISYWKLTEAEVVAHYKAVGAAIDIPIMLYNNPGTSGTDLSVELILRILGEVPNVTMVKESTGDIQRMHRLFTATDGQVAFYNGCNPLTLEALVAGATGWCTAAPNLIPALNLALWDAVQQGDLAEARALFYRQYELLEYITRRGLPTTIKAGLKMLGQDVGAPRLPLQPLDAQGSNHLKSLLEGHHHHHH” is “soluble”; for “MGSDKIHHHHHHSNINPSNGEGRDPLENFNRAMWKINYEVIDPHIFKPVAKGWRDYVPAPIKRSLVNIANNLDEPASFVNRLIEGDGQKAMRHFTRFWINSTFGLAGLIDWASQIKELKLENGNREFGDTLGHYGVPAGSYIMAPGYGPITPRQAVGKVVDSVYPMLSMLATPWMLTKFFVQSIDTRAQFINQEALLTNSADPYISFREAYFQNLRFKVKDGDVSDIQEQLSQEELDQID” it is “not soluble”; for “MRYPESLLKLTRALSRLPGIGPKTAQRLALHLAFHKEEAEALAEALEGIKRVRACRECGNLAEGELCPICQDEDRDRSLLAVVESVADLYALERSGEFRGLYHVLGGALNPLEGIGPKELNLEGLFRRLEGVEEVVLATSMTVEGEATALYLAEELKKRGVRVTRPAYGLPVGGSLEYADEVTLGRALEGRRPV” it is “soluble”.
Regarding “PSMPASPVLTKAGITWLSLQWSKPSGTPSDEGISYILEMEEETSGYGFKPKYDGEDLAYTVKNLRRSTKYKFKVIAYNSEGKSNPSEVVEFTTCPD”, the “soluble on expression in E. coli” value is given as “soluble”.
The value for “MGSDKIHHHHHHMIKIGAHMPISKGFDRVPQDTVNIGGNSFQIFPHNARSWSAKLPSDEAATKFKREMKKHGIDWENAFCHSGYLINLASPKDDIWQKSVELLKKEVEICRKLGIRYLNIHPGSHLGTGEEEGIDRIVRGLNEVLNNTEGVVILLENVSQKGGNIGYKLEQLKKIRDLVDQRDRVAITYDTCHGFDSGYDITKKEGVEALLNEIESLFGLERLKMIHLNDSKYPLGAAKDRHERIGSGFIGEEGFAVFFSFKEIQEVPWILETPGGNEEHAEDIKKVFEIIEKFGIEVD” was “not soluble”; that for “GSPGISGGGGGILDSMVEKEEPKEEEKLGKLQYSLDYDFQNNQLLVGIIQAAELPALDMGGTSDPYVKVFLLPDKKKKFETKVHRKTLNPVFNEQFTFKVPYSELGGKTLVMAVYDFDRFSKHDIIGEFKVPMNTVDFGHVTEEWRDLQSAE” was “soluble”; that for “MGSDKIHHHHHHMRIDTVNVLLEALPYIKEFYGKTFVIKFGGSAMKQENAKKAFIQDIILLKYTGIKPIIVHGGGPAISQMMKDLGIEPVFKNGHRVTDEKTMEIVEMVLVGKINKEIVMNLNLHGGRAVGICGKDSKLIVAEKETKHGDIGYVGKVKKVNPEILHALIENDYIPVIAPVGIGEDGHSYNINADTAAAEIAKSLMAEKLILLTDVDGVLKDGKLISTLTPDEAEELIRDGTVTGGMIPKVECAVSAVRGGVGAVHIINGGLEHAILLEIFSRKGIGTMIKELEG” was “not soluble”.
With “MNINLSVPYAAEGPGPTINTLGQVDGEDVVSISSADLDETEGNLNMTTVSVRSGMTLSQVISRWLFTDDTIVPIEQVFPPGQSTEEVEESNRTAFISSESSATIAAMNYLNIPVEVEVAEVLTDSAATGIFEPGDKLLSIDGTAISTPGDAQTIVRSKAPGDEITISYERNDAESQATITLREHPDDSSVALLGISMLSVPSSAIEVDYNLEDIGGPSAGMMFSLAVVDKLSPGALNGGKFVAGTGTIAEDGSVGPIGGIAHKVRAAEDAGAEVFLSPADNCAEAMSAKPQDMTILKVDSLSQAIDQMAAYNEGLEHHHHHH”, the “soluble on expression in E. coli” value is reported as “soluble”.
Regarding “MSLVINAPFKVIASKVTAEVLKSVNSKLGSYSTNYATSSEARATNVAVATRSIDGKVVMPGETFSFNEVVGERTRARGYKEAGVIVNQKLESGFGGGVCQVSSTLYNALLRSNIKMTERVHHTFPSSYVPTGLDATVDWGNIDLKFKNTFKYPIYIQGYTGGREVGFNIYSNSELAREGHHHHHH”, the “soluble on expression in E. coli” value is given as “not soluble”.
As for “MGSDKIHHHHHHMSSMSARNPFRPTFGVSPTVLAGRDSLLQSFKLGLAEGPGSPFRALLISGSRGMGKTVLLNEFEDAAASQGWITLRAYPDNSMVDGLVNSAIPEALQNLDGPQSKRMLSGVAIPGIATVTAIADPTKKDPTPTLISRLRELATRLQKHGSGILITLDELQSANVDLLHVLATAVQDLLRDDFDIALVAAGLPEGIDRLLQHEGTTFIRRAERILLNPVNHEDSVEMFLYTAAYGYRHMTSEAAELAAQISKGYPYSMQLTGSLAWARSTLDNSDTIQAEQVDAVRDEVVRRMGMQVHEPSLHQVPDGELTILYAIAQLSKNGEMVSTGDIAHLMGVKPNALSMQRKQLLSRGLVEVPKYGFLNFTLPYMREHLLNSPHHRPIT”, the “soluble on expression in E. coli” value is reported as “not soluble”.
With “MEIKDTYNIGELSPGMTATFEGEVISALPIKEFKRADGSIGKLKSFIVRDETGSIRVTLWDNLTDIDVGRGDYVRVRGYIREGYYGGLECTANYVEILKKGEKIESLEHHHHHH”, the “soluble on expression in E. coli” value is “not soluble”.
Regarding “MAGLGHPAAFGRATHAVVRALPESLGQHALRSAKGEEVDVARAERQHQLYVGVLGSKLGLQVVELPADESLPDCVFVEDVAVVCEETALITRPGAPSRRKEVDMMKEALEKLQLNIVEMKDENATLDGGDVLFTGREFFVGLSKRTNQRGAEILADTFKDYAVSTVPVADGLHLKSFCSMAGPNLIAIGSSESAQKALKIMQQMSDHRYDKLTVPDDIAANCIYLNIPNKGHVLLHRTPEEYPESAKVYEKLKDHMLIPVSMSELEKVDGLLTCCSVLINKKVDS”, the “soluble on expression in E. coli” value is given as “not soluble”.
